Residue numbers refer to the chain shown, from its start. In names and notes the source's numbering stands. Values belong to the binder of their own block, whether it stands above or below them.
What was measured:
[1] = molecular target: T1, Recombinant Human DLL4 (R&D Systems Cat#1506-D4/CF) (human, UniProt Q9NR61 27-524); experiment: ELISA, DLL4 coated on plate, Fab at 6.67 nM
T1 construct: Bought recombinant protein; also called delta-like protein 4; Delta-like 4

[2] = molecular target: T1, Recombinant Human DLL4 (R&D Systems …); experiment: ELISA, DLL4 coated on plate, Fab at 2.22 nM
[3] = molecular target: T1, Recombinant Human DLL4 (R&D Systems …); experiment: ECL (Meso Scale Discovery) multispot binding assay, DLL4 immobilised, Fab at 100 nM
[4] = molecular target: T1, Recombinant Human DLL4 (R&D Systems …); experiment: ELISA, DLL4 coated on plate, Fab at 20 nM
[5] = molecular target: T1, Recombinant Human DLL4 (R&D Systems …); experiment: ELISA, DLL4 coated on plate, Fab at 0.74 nM
[6] = molecular target: T2, Recombinant Human DLL4 (delta-like protein 4) (human, UniProt Q9NR61 27-524); experiment: ECL (MSD) multispot binding assay, Fab on immobilised recombinant human DLL4
T2 construct: also called rHuman DLL4; Delta-like 4

B1: Fab VH5-51_IGHD5-18*01>3_IGHJ4*01 G100K/G104T (H:KT) & V3-4_IGLJ1*01 (Fab, V domains shown)
VH: EVQLVQSGAEVKKPGESLKISCKGSGYSFTSYWIGWVRQMPGKGLEWMGIIYPGDSDTRYSPSFQGQVTISADKSISTAYLQWSSLKASDTAMYYCARRKYSYTYDYFDYWGQGTLVTVSS
VL: QTVVTQEPSFSVSPGGTVTLTCGLSSGSVSTSYYPSWYQQTPGQAPRTLIYSTNTRSSGVPDRFSGSILGNKAALTITGAQADDESDYYCVLYMGSGISYVFGTGTKVTVL
notes: Fab expressed in E. coli; Plasmid A adds CH1 with His6 and Flag tags to the heavy chain; Plasmid E adds lambda CL to the light chain; also called H:KT & L:wt; KT double mutant
ELISA signal [1]: 0.042
ELISA signal [2]: 0.014
ECL signal [3]: 9360
ELISA signal [4]: 0.018
ELISA signal [5]: 0.019

B2: Fab VH5-51_IGHD5-18*01>3_IGHJ4*01 G100K/G104T (H:KT) & V3-4_IGLJ1*01 (wildtype light chain) (Fab, V domains shown)
VH: B1 VH
VL: B1 VL
notes: Fab made in E. coli; VH was cloned into Plasmid A (CH1, His6 and Flag tags) and lambda VL into Plasmid E (lambda CL); also called H:KT & L:wt; KT double mutant
ECL signal [6]: 9360

B4: Fab VH5-51_IGHD5-18*01>3_IGHJ4*01 G100K/G104T (H:KT) & V3-4_IGLJ1*01 S58A (Fab, V domains shown)
VH: B1 VH
VL: B1 VL with S58A
notes: Fab (CH1 with His6/Flag tags from Plasmid A, lambda CL from Plasmid E); also called G100K/G104T & S58A
ECL signal [6]: 12600

B5: Fab VH5-51_IGHD5-18*01>3_IGHJ4*01 G100K/G104T (H:KT) & V3-4_IGLJ1*01 S52A (Fab, V domains shown)
VH: B1 VH
VL: B1 VL with S52A
notes: Fab (CH1 with His6/Flag tags from Plasmid A, lambda CL from Plasmid E); also called G100K/G104T & S52A
ECL signal [6]: 15200

B6: Fab VH5-51_IGHD5-18*01>3_IGHJ4*01 G100K/G104T (H:KT) & V3-4_IGLJ1*01 M94R/S96M (L:RM) (Fab, V domains shown)
VH: B1 VH
VL: B1 VL with M94R, S96M
notes: Fab expressed in E. coli; Plasmid A adds CH1 with His6 and Flag tags to the heavy chain; Plasmid E adds lambda CL to the light chain; also called H:KT & L:RM; G100K/G104T & M94R/S96M
ELISA signal [1]: 0.023
ELISA signal [2]: 0.007
ELISA signal [4]: 0.087
ELISA signal [5]: 0

B7: Fab VH5-51_IGHD5-18*01>3_IGHJ4*01 G100K/G104T G24T/S28R/G35V (H:KT TRV) & V3-4_IGLJ1*01 M94R/S96M (L:RM) (Fab, V domains shown)
VH: B1 VH with G24T, S28R, G35V
VL: B1 VL with M94R, S96M
notes: Fab expressed in E. coli; Plasmid A adds CH1 with His6 and Flag tags to the heavy chain; Plasmid E adds lambda CL to the light chain; also called H:KT TRV & L:RM; G100K/G104T G24T/S28R/G35V & M94R/S96M
ELISA signal [1]: 0.062
ELISA signal [2]: 0.028
ELISA signal [4]: 0.122
ELISA signal [5]: 0.006

Next, values leading:

ELISA signal [1]: 0.005
ELISA signal [2]: 0
ELISA signal [4]: 0.027
ELISA signal [5]: 0.006
B3: Fab VH5-51_IGHD5-18*01>3_IGHJ4*01 G100K/G104T G24L/S28R/G35V (H:KT LRV) & V3-4_IGLJ1*01 (Fab, V domains shown)
VH: B1 VH with G24L, S28R, G35V
VL: B1 VL
notes: Fab expressed in E. coli; Plasmid A adds CH1 with His6 and Flag tags to the heavy chain; Plasmid E adds lambda CL to the light chain; also called H:KT LRV & L:wt; G100K/G104T G24L/S28R/G35V & parent

ELISA signal [1]: 0.025
ELISA signal [2]: 0.002
ELISA signal [4]: 0.054
ELISA signal [5]: 0.008
B8: Fab VH5-51_IGHD5-18*01>3_IGHJ4*01 G100K/G104T G24A/S28R/G35V (H:KT ARV) & V3-4_IGLJ1*01 (Fab, V domains shown)
VH: B1 VH with G24A, S28R, G35V
VL: B1 VL
notes: Fab expressed in E. coli; Plasmid A adds CH1 with His6 and Flag tags to the heavy chain; Plasmid E adds lambda CL to the light chain; also called H:KT ARV & L:wt; G100K/G104T G24A/S28R/G35V & parent

ECL signal [6]: 12700
B9: Fab VH5-51_IGHD5-18*01>3_IGHJ4*01 G100K/G104T (H:KT) & V3-4_IGLJ1*01 T55A (Fab, V domains shown)
VH: B1 VH
VL: B1 VL with T55A
notes: Fab (CH1 with His6/Flag tags from Plasmid A, lambda CL from Plasmid E); also called G100K/G104T & T55A

— patent publication US20120316071A1 (published 2012)
